Reference: article PMC8137920, “Self-association of MreC as a regulatory signal in bacterial cell wall elongation” (Nature Communications, 2021)

B1: MreC from Pseudomonas aeruginosa lacking the TM region and the first 21 residues of its N-terminal helix, residues 36-330 (domain or fragment, Pseudomonas aeruginosa PAO1, UniProt Q9HVU1 36-330, looked up)
chain: LAEMPVRAWEGVRDQFSSRSELIAENERLKAESLLMQRRVQKLAALTEQNVRLRELLNSAALVDDKVLVSELIGVDPNPFTQRIMIDKGENDGVFVGQPVLDASGLMGQVVEVMPYTARVLLLTDTTHSIPVQVNRNGLRAIAVGTGNPERLELRYVADTADIKEGDLLVSSGLGQRFPAGYPVATVKEVIHDSGQPFAVVRAVPTAKMNRSRYVLLVFSDSRTPEQRANDAAEAQEEADKKAAAGAQAPQPAAQPAAAPSPATPAAQGAAQQPAAAPAPAPTQPAAPAANGGRR
notes: MreC, Pseudomonas aeruginosa PAO1, residues 36-330; also called MreCPa(36-330); MreCPa; not shown: GST, N-terminal, cleaved
B2: MreC from Pseudomonas aeruginosa, periplasmic form, residues 15-330 (domain or fragment, Pseudomonas aeruginosa PAO1, UniProt Q9HVU1 15-330, looked up)
chain: RFDYLEPVRSKLGMVLTPFYGLAEMPVRAWEGVRDQFSSRSELIAENERLKAESLLMQRRVQKLAALTEQNVRLRELLNSAALVDDKVLVSELIGVDPNPFTQRIMIDKGENDGVFVGQPVLDASGLMGQVVEVMPYTARVLLLTDTTHSIPVQVNRNGLRAIAVGTGNPERLELRYVADTADIKEGDLLVSSGLGQRFPAGYPVATVKEVIHDSGQPFAVVRAVPTAKMNRSRYVLLVFSDSRTPEQRANDAAEAQEEADKKAAAGAQAPQPAAQPAAAPSPATPAAQGAAQQPAAAPAPAPTQPAAPAANGGRR
notes: MreC, Pseudomonas aeruginosa PAO1, residues 15-330; lacks the first 14 amino acids (cytoplasmic residues and TM region); The results call it only 'MreCPa' (periplasmic form); also called MreCPa; MreCPa(15-330); not shown: GST, N-terminal, cleaved

Assays:
[1] = biological target: the molecule itself; assay: negative-staining electron microscopy; purified protein concentrated in 25 mM CHES pH 9.0, 150 mM NaCl, 10 mM MgCl2; mica-carbon flotation, 2% sodium silico tungstate pH 7.4
[2] = biological target: the molecule itself; assay: AUC; sedimentation velocity (SV-AUC), 0.8 mg/ml protein, 25 mM CHES pH 9.0, 150 mM NaCl, 10 mM MgCl2, 62,000 g, 20 °C, absorbance at 280 nm, c(s) analysis with Sedfit

Protein | binding result [1] | binding result [2]
B1 | binds | 
B2 |  | binds
